pKd: −log10 of the molar value. Read-outs that look alike come from different tables or passages of the source.

What all share (test): fluorescence polarisation
Assay [1] concerns the target T4 lysozyme mutant L99A, bimane-labelled at Cys151 (T151Bi) (bacteriophage T4) (UniProt P00720).
Assay [2] addresses T4 lysozyme mutant L99A/A130S, bimane-labelled at Cys151 (T151Bi) (bacteriophage T4) (UniProt P00720).
The target in assay [3] is T4 lysozyme mutant D70N, bimane-labelled at Cys151 (T151Bi) (bacteriophage T4) (UniProt P00720).
Assay [4] deals with T4 lysozyme mutant L99A/A130S, bimane-labelled at Cys151 (T151Bi) (bacteriophage T4) (UniProt P00720). The source holds these as a separate data set.
Assay [5] has the same target. The source holds these as a separate data set.
Assay [6] concerns the target T4 lysozyme mutant L99A, bimane-labelled at Cys151 (T151Bi) (bacteriophage T4) (UniProt P00720). The source holds these as a separate data set.
For assay [7] the target is unchanged. This is another data set of the same source.
Assay [8] has the same target. The source holds these as a separate data set.

The pKd is the Kd on a negative log10 scale, so that one unit is a factor of ten. Lower therefore signals a large Kd. By stoichiometry N is commonly meant the number of molecules, sites or subunits per partner or assembly. Consider “zebrafish αBb-crystallin (from UniProt Q6DG35 1-165) (natural protein)”, for which the pKd in assay [1] is 5.87; in assay [2], 6.92; in assay [3], 5.31; in assay [4], 5.31; in assay [5] it was 4.54. This substance also had a stoichiometry N in assay [2] of 0.33.
As to “zebrafish αBa-crystallin, population αBa-S (from UniProt Q9PUR2 1-168) (natural protein)”, the pKd in assay [6] was 7.92; in assay [1] it was 7.24; in assay [2], 7.20; in assay [3] it was 5.73; in assay [7] it was 6.04; in assay [4], 6.68. Moreover, the negative logarithm of the Kd (pKd) in assay [8] is 7.17. In addition, the stoichiometry N is 0.64 in assay [6], 0.47 in assay [1], 0.65 in assay [2] and 0.65 in assay [8].
On to “human αB-crystallin (from UniProt P02511 1-175) (natural protein)”, for which the negative-log Kd (pKd) in assay [8] is 4.55.
Same read-out and setting: as for “triply phosphorylated analog (S19D/S45D/S59D) of human αB-crystallin (from UniProt P02511 1-175) (natural protein)”, the figure is 7.15.
Regarding “zebrafish αA-crystallin (from UniProt Q8UUZ6 1-173) (natural protein)”, the pKd in assay [1] is 5.09; in assay [2], 5.21; in assay [3], 4.05; in assay [7] it was 4.29; in assay [4], 4.68; in assay [8] it was 5.08. The substance also showed a stoichiometry N in assay [2] of 1.25.
Consider “human αA-crystallin (from UniProt P02489 1-173) (natural protein)”, for which the pKd in assay [1] was 5.61; in assay [2], 5.63; in assay [3] it was 4.83; in assay [8] it was 5.72.
Regarding “triply phosphorylated analog (S15D/S78D/S82D) of human Hsp27 (from UniProt P04792 1-205) (natural protein)”, the negative-log Kd (pKd) in assay [8] is 7.42.
For “rat αA^ins-crystallin (from UniProt P24623 1-196) (natural protein)”, the pKd was 7.77 in assay [1], 7.19 in assay [2] and 5.17 in assay [3]. For the same substance, the results for the stoichiometry N in assay [1] and in assay [2] were 0.33 and 0.32, respectively.

Values taken from paper PMC5240591.
